A short description of the data set: yeast display, Sf9 membrane polyspecificity reagent, FACS + sequencing; frameworks hold sequencing errors. The procedure, abridged: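 Sorting gates, low and high (top ~1%), were placed on anti-HA fluorescence to track expression and on streptavidin fluorescence to track reagent binding. A clone's polyreactivity label is taken from the gate it came out of. The reagent was 10% biotinylated, detergent-solubilized Sf9 membrane, applied for 1 hour at 4 °C to galactose-induced yeast display cells.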
As to “QVQLVESGGGLVQAGGSLRLSCAASGSTFHWYDMGWYRQAPGKERELVAGINTSGDGTYYADSVKGRFTISRDNAKNTVYLQMNSLKPEDTAVYYCAAEYYTYWGYEDDYWGQGTQVTVSS”, the “polyreactivity (PSR sort gate)” value is given as “low polyreactivity”. Under “QVQLVESGGGLVQAGGSLRLSCAASGRTFSENAMGWYRQAPGKERELVAAISGSGGRTYYADSVKGRFTISRDNAKNTVYLQMNRLKPEDTAVYYCAKVTRYGSTYDYWGQGTQVTVSS” stands “high polyreactivity”.

For the sequence “QVQLVESGGGLVQAGGSLRLSCAASGNTFRYNAMGWYRQAPWKERELVAAISRRGGSTYYADSVKGRFTISRDNAKNTVYLQMNSLKPEDTAVYYCNAGRTAENEYWGQGTQVTVSS”, the “polyreactivity (PSR sort gate)” value is “high polyreactivity”.

For the sequence “QVQLVESGGGLEQAGGSLRLSCAASGLTFSAYVMAWYRLAPGKERELVAAISRRGGSTYYAYSVKGRFTISRDNAKNTVYLQMNSLKPEDTAVYYCAARKVAVRGYGYWGQGTQVTVSS”, the “polyreactivity (PSR sort gate)” value is reported as “high polyreactivity”.

Turning to “QVHLVESGGGVVQAGGSRRLSCAASGSIIHDNAMGWYRQAPGKERELVADITWSGGSTYYADSVKGRFTISRDNAKITVYLQMNSLKPEETAVYDCAAGSGHWYYYDFDYWGQGTLVTVSS”, the “polyreactivity (PSR sort gate)” value is given as “high polyreactivity”.

On to “QVQLEESGGGLVKEGGSLRLSCAASGSIFPINAMGWYRQAPGKERELVAAINGSGSTKYADSVKGRFTISRDNAKNTVYLQMNSLKPEDTAVYYCSTRGLRWAKYGYWGQVTQVTVSS”, for which the “polyreactivity (PSR sort gate)” value is listed as “high polyreactivity”. In the case of “QVQLGESGGGLVQAGGSLRLSCAASGFTFDFYAMGWYRPAPGKEWELVAAINWSGSSTYYADSVKGRFTISRDNAKNTDYLQMNSLKPEDTAVYYCAAQVYYTLFPDVYTMYYWGQGTQETVSS”, the “polyreactivity (PSR sort gate)” value is reported as “high polyreactivity”. For the sequence “QVQLQESGCGLVQVGGSLRLSCAASGTTFIYGFLGWNRQAPGKERELVASINLGGFTNYADSVKGRFTISRDNAKNTVYLQMISLNPEDSAVFYCAAYVVTGQNYGYWGKGTQVTVSS”, the “polyreactivity (PSR sort gate)” value is “low polyreactivity”. Under “QVQLVESGGGLVQAGGSLRLSCAASGLIFPCYDMGWYRQAPGKERELVAAISDSGANTYYADSVKGRFTISRDNAKNTVYFQMNSLKPEDTAVYYCAAESSWWYGTSFGRFDYWGQGTQVTVSS” stands “low polyreactivity”; under “QVQLVESGGGLVQAGGSLRLSCAASGSTFGYYTMGWYRQAPGKERELVAAITWSGGSTYYADSVKGRFTISRDNAKNTVFLQMNSLKPEDTAVYYCAAEDYWTPFGYWGQGTQVTVSS”, “low polyreactivity”. Consider “QVQLVESGGGLVQAGGSLRLSCAASGSIFVGNAMGGYRQAPGKERELVAAITSSGGRTYYADSVKGRFTISRDNAKNTVYLQMNSLKPEDTAVYYCNTSRTRRFSLWAYDYWGQGTQVTVSS”, for which the “polyreactivity (PSR sort gate)” value is “high polyreactivity”. Then “QVQLVESGGGLVQAGGSLRLSCAASGSIFNINAMGWYRHAPGKERELVAVITSRDGRTYYADSVKGRFTISRDNAKNTVYLQMNSLKPEDTAVYYCAADVVNRHYYFWGQGTQVTVSS”, with “low polyreactivity”; and “QVQLQESGGGLVQAGGSLSCAASGNIFYIKYMGWYRQEPGKEREFVASIAHGTSTYYADSVKGLFTISRDNAKNTVYLQMNSLKPVDTAVYYCAAVTQSYYSYYYWGQGTQVTVSS”, with “low polyreactivity”. Turning to “QVQLVDSGGGLVQAGGSLRLSCAASGSTFRGYDMGWYRQAPGKESELVAAITGSGTSTYYADSVKVRFTISRDNAKNTVYLQMNSLKPEDTAVYYCAARSRRPAERMYYWGQGTQVTVSS”, the “polyreactivity (PSR sort gate)” value is “high polyreactivity”. Then “QVQLEESGGGLVQAGGSLRLSCAASGITFWHNTMGWYRQATGKEREMVAAISWTGGRTYYADSVKGRFTISRDNAKNTVYLQMNSLKPDDTAVYYCAADFSWTPSGNYDSWGQGTQVTVSS”, with “low polyreactivity”; and “QVQLVESGGGLVQAGGTLRLSCSASGRTFQVYAMGWYRQAPGKERELVAGITRAGSTYYADSVKGRFTISRDNAKNTVYLQMNSLKPEDTAVYYCAASRWHGYNYWGQGTQVTVSS”, with “high polyreactivity”; and “QVQLVESGGGLVQAGGSLRLSCAASGFTFRYYAMGWYRQAPGTERELVAGITRSGGSTYYADSVKGRFTISRDNAKNTVYLQMNSLKPEDTAVYYCAAYRSIYGTRAPREFESWGQGTQVTVSS”, with “high polyreactivity”.

For “QVQLVESGGGLVQAGGSLRLSCAASGFTFGFYAMGRYRQAPGKERELVARISYSGGSTYYADSVKGRFTISRDKAKNTVYLQMNSLKPEDTAVYYCNRGYRRLQEDYWGQGTQVTVSS”, the “polyreactivity (PSR sort gate)” value is “high polyreactivity”. For “QVQLVESGGGLVQAGGSLRLSCAASGRTFRRYAMGWYRQAPGKERELVATIRSGDNTNYADSVKGRFTISRDNAKNTVYLQMNSLKPEDTAVYYCNRSPKSGQVTYLYSVNAHYDYWGQGTQVTVSS”, the “polyreactivity (PSR sort gate)” value is “low polyreactivity”. Under “QVQLVESGGGLVQAGGSLRLSCAASGSIFSKNAMGWYRQAAGKEWEWVAAISRSAGSTYYADSVKGRFTISRDNAKNTVYLQMNSLKPEDTAVYYCAAEGYRWVTAYYDYDEDYWGQGTQVTVSS” stands “low polyreactivity”. With “QVQLVESGGGLVQAGGSLRLSCAASGIIFYDYVMGWYRQAPGKERELVTAISSNGGSTYYADSVKGRFTISRDNAKNTVYLQMNRLKPEDTAVYYCAAEGKSYPWPWYFDYWGQGTQVTVSS”, the “polyreactivity (PSR sort gate)” value is listed as “high polyreactivity”.

Regarding “QVQLVESGGGLVQAGGSLRLSCAASGRTFIGYAMGWYRQAPGKERELVAASSSGGNTYYADSVKGRFTISRDNAKNTVYLQMNSLKPEDTAVYYCAAKGYRRVARYFIGDYWGQGTQVTVSS”, the “polyreactivity (PSR sort gate)” value was “low polyreactivity”.

Regarding “QVQLVESGGGLVQAGGSLRLSCAASGSTFYGNAMGWYRQAPGKERELVATIDSTAGTNYADSVKGRFTISRDNAKNTVYLQMNSLKPEDTAVYYCAREYSIYNPPGYLGTVEYDYWGQGTQVTVSS”, the “polyreactivity (PSR sort gate)” value is “low polyreactivity”.

Consider “QFQLVESGGGFVQAGGSLRLSGASSGIIFLANAMVWYRQSPGKEREFVAAISRSGSRTYDADSVKGRFTISRDHAKNSVYLQMNSVKPEDTAVYYCAAESPVLYYWGQGTQVTVSS”, for which the “polyreactivity (PSR sort gate)” value was “high polyreactivity”. Then “QVQLVESGRGLFQAGGSLRLSCAASGSTFTVNTMGWYRQAPGKERELVDAITKNGANTYYADSVKGRFTISRDNAKNTVYLQMNILKPEDTAVYYCAALYVYGKSYSRWLVELDYWGQGTQVTVSS”, with “low polyreactivity”. Then “QVQLVESGGGLVQAGGSLRLSCAASGYIFDGNAMGWYRKAPGKERELVAPITWTGGSTYYADSVKGRFTISRDNAKNTVYLQMNSLKPEDTAVYYCAKPYDPGPYHSSYRATDDYWGQGTQVTVSS”, with “low polyreactivity”; and “QVQLVESGGGLVQAGGSLRLSCAASGSTFYFYDMGWYRQAPGKERELVATIDDGGGSTYYADSVKGRFTISRDNAKNTVYLQMNSLKPEDTAVYYCNADDSEYLIYDYWGQGTQVTVSS”, with “low polyreactivity”. On to “QVQLVESGGGLVQAGGILRLSCAASGRIFLYYTMGWYRQAPGKEREFVAAITRSGSSTYYADSVKGRFTISRDNAKNTVYLQMNSLKREDTAVYYCNRVFTWRYGYRYEYWGQGTHVTVSS”, for which the “polyreactivity (PSR sort gate)” value is recorded as “high polyreactivity”. Then “QVQLVESGGGLVQAGGSLRLSCAASGSTLRGNAMGWYRQAPGKERELVAAISWSGGITYYADSVKGRFTISRDNAKNTVYLQMNSLKPEDTAVYYCAVDRPRGGPTKYERRTKHGYWGQGTQVTVSS”, with “low polyreactivity”. Then “QVQLVESGGGLVQAGGSLRLICAASGRTFRGYAMGWYRQAPGKERELVAAISVTGSSTNYADSVKGRFTISRDNAKNTVYLQMNSLKPEDTAVYYCNAKRVRYSLSYDYWGQGTQVTVSS”, with “high polyreactivity”; and “QVQLVESGGGLVQAGGSLPLSCAASGSIYGANAQGWYRQAPGKERELVAAISSNGDDTYADSVKGRFTISRDNAKNTVYIQMNSLKPEDTAVYYCNKRPWWWGGDDYGGQGTQVTVSS”, with “low polyreactivity”; and “QVQHVESGGGLVQAGGSLRLSCAASRSIFYYYAMGWYRQPPGKERELVAAISSDGTNYADSVKGRFTITRDNAKNTVYLQMNSLNPEDTAVYYCAKDHCTTSYDEGDYWGQGTQVTVSS”, with “low polyreactivity”. Regarding “QVQLVESGGGLVQAGGSLRLSCAASGSTFGFNAMGWYRQAPGKERELVAAIRGGDSTNYADSVKGRFTISRDNAKNTVYLQMNSLKPEDTAVYYCAAVLRYVVRPYSYWSGGYDYWGQGTQVTVSS”, the “polyreactivity (PSR sort gate)” value is “high polyreactivity”. Then “QVQLVESGGGLVQAGGSLRLSCAASGSIFFEYAMGWYRQAPGKERELVASINRGGGSTYYADSVKGRFTISRDNAKNTVYLQMNSLKPEDTAVYYCAAQWKYRQSYLDYYWGQGTQVTVSS”, with “low polyreactivity”; and “QVQLVESGGGLVQAGGSLRLSCAASGRIFGYNAMGWYRQAPGNERELVAAITNGGSTNYADSVKGRFTISRDNAKNTVYLQINSLKPEDTAVYYCAVKWYPPGHDYWGQGTQVTVSS”, with “low polyreactivity”. Under “QVQLVESGGGLVQAGGSLRLSSAASGSISADYVMGWYRQAPGKERELVAAISVSAGTTYYADSVKGRFTISRDNAKNTVYLQMNSLKPEDTAVYYCAATDSYYWLYYYGYSPGNDYWGQGTQVTVSS” stands “low polyreactivity”. Under “QVQLVESGGGLVQAGGSLRLSCAASGRTFQLNAMGWYRQAPGKEREFVATISTGGGGTFYADSVKGRFTISRDNAKNTVYLQMNSLKPEDTAVYYCNAGGETYIFRDLRHDYWGQGTQVTVSS” stands “low polyreactivity”. On to “QVQLVESGGGLVQAGGSLRLSCAASGRTFILYAMGWYRQAPGKERELVAAITRRGGRTYYADSVKGRFTISRDNAKNTVYLQMNSLKPEDTAVYYCAADQYYYTQPSDMDYWGQGTQVTVSS”, for which the “polyreactivity (PSR sort gate)” value was “high polyreactivity”. With “QVQLVESGGGLVQAGGSLRLSCAASGITFPGNAMGWYIQAPGKERELVAVISSGTSTNYADSVKGRFTISRDNAMNTVYLQMNSLKPEDTAVYYCATSLYYYPYYYWGQGTQVTVSS”, the “polyreactivity (PSR sort gate)” value is given as “low polyreactivity”. Then “QVQLVESGGGLVQAGGSLRISCAGSGSIFSRNAMGWYSQAPGTERELVAAITGSGSSTYYADSVKGRFTISRDNAKNTVYLQMNSLKPEDTAGYYCNAARVYLSEWGQGTQGTVSS”, with “high polyreactivity”; and “QVQIVESGGGLVQAGGSLRLSCAASGFIFDFYTMGWYRQAPGKERELVAAITWSGDSTYYADSVKGRFTISRDNAKNTVYLQMNSLKPEDTGVYYCAADWWGVWYFDYDYWGQGTQVTVSS”, with “low polyreactivity”.

The values above are taken from the nanobody polyreactivity screen of Harvey et al. (2022).
